{"source": "the DeepSol protein solubility set"}
{"experiment": "soluble on expression in E. coli; label from the status in PepcDB or PDB records"}
{"sequence": "MRVKIRRELLEYLLELAKSFYPREVAGFLRMKDGVFEEVLIVPKGFFGESSVYFDLTLMPHDESIKGTFHSHPSPFPYPSEGDLMFFSKFGGIHIIAAFPYDEDSVKAFDSEGREVELEVID", "soluble on expression in E. coli": "soluble"}
{"sequence": "MKKLLSIVLGLALSAPVLANEVSFEQYVERLKQQAREEGISERILNEAFRDVEYKPRSVVADKNQPEKKLTLDEYIPRAVPEWKVKQAQSLYEKHYTELQRIGKQYGVQPRFIVALWGVESNFGAFTGNFRVIDALSTLAYEGRREEFFRKETMAALQILEQGHIAPEAMKGSWAGAMGQCQFMPSSFLNFAADGNGDGKKDIWGTRSDVFASTANYLSQSGWDDKYTWGRQVKIPKGFDHALEGRQPEKGKTLQEWSKLGVTRYDGKPLPALSDDIKAWLIMPDDEAGRIYLVYNNYNVLMKWNRSHYFALAVSHLADRIAF", "soluble on expression in E. coli": "not soluble"}
{"sequence": "MGSDKIHHHHHHMSKIFAQDTDCSFLIEQAVKAPSGHNTQPWTFRIKETGIDILPDFTKTLPVVDPDNRELFVSLGCATENLCVAAAHKGYETMVSIAENGTIHIELTKQDSDTPSPLFPHISVRQTNRSVYDGNTIPVNDIVALGEKSDMEPCVGAHFFKNGTREFDAISEMVCEGNSIQMRDKKFKEELQQWMRYNKKHQDATRDGLSYAVFGAPNLSRFIAKAIITRLINEKSQNRNDRRKIASSSHFVLFTTSNNTVVQWIKLGRALEHILLKATGMGISHAYMNQPNEVQGLSGKMAEILGIEDEYPTVLIRLGYGSKMPYSLRRSVQSCIIPNSFD", "soluble on expression in E. coli": "not soluble"}
{"sequence": "MAKKEIEPKTEQAKRLRLIRKSLQLHRDQIATRLGINKAIYDHAERGTTFPNVEFLTALSQQLKVNLNWFITGNGEMFTDMAKAKAAGFKPQAIPAGLMKRLGHLAYTTYRDAKITLPPEDVAELAAGLYGKLQELIYNINDMEEVEATLPLLKLHLKRQVEAEKAH", "soluble on expression in E. coli": "not soluble"}
{"sequence": "MAHHHHHHMGVCLASLMVRRSRISEVPDRYIEERRRYGPVAVACAPPEDDVSSAVYRAAGITDEEHRRICKEWYEGENIVHRLEEICAERSDRRALAYRTVQKVETEKKTDSKGHTRNWEVTYLNDPTYMTYNEFWSRLIAFGKGLRELGLAEGAAVAIAEDVRWEWLASVLAGWTQGLISVTVYANLGEAALLHALKEAECPALICNGNAVKKLVPLLHKAKLNNTMVIYLDALPAGVDAEGMMLLSWTDVLQKGLQSCFSYTIPSDCNRTALIMYTSGTVAEPKGVIHTFGSLKTGAAALEDRLTELLGPKEEGETYLAYLPLAHILEFITEMIMLNRGSLLCYGSPRTLSDMSARPRGDLAEFRPMMFVGVPRIFETIRKNVESQLPPVGSVKRSIFDAAYAARLRAIEDGKDTPF", "soluble on expression in E. coli": "soluble"}
{"sequence": "MSLSTGDASGAPAVWSHGYTEASGVKNKLCVAALSVNNFCDNREALYGVFDGDRNVEVPYLLQCTMSDILAEELQKTKNEEEYMVNTFIVMQRKLGTAGQKLGGAAVLCHIKHDPVDPGGSFTLTSANVGKCQTVLCRNGKPLPLSRSYIMSCEEELKRIKQHKAIITEDGKVNGVTESTRILGYTFLHPSVVPRPHVQSVLLTPQDEFFILGSKGLWDSLSVEEAVEAVRNVPDALAAAKKLCTLAQSYGCHDSISAVVVQLSVTEDEGHHHHHH", "soluble on expression in E. coli": "soluble"}
{"sequence": "LRFQMNTRQFVSCWRSHKDELIATYFDASTDSQVGKAISDLGLNAGQTASLRTVIDGVLTDAFYSLLLGLDGAASIGPVQQPYEIRAEDGSVIRDIEPEAWAQFHDRSA", "soluble on expression in E. coli": "not soluble"}
{"sequence": "MGSDKIHHHHHHMVDQSQLRQWGCKVIDIEKSALDNLYQYVDSAEFAQACELILNCSGKVIVMGMGKSGHIGNKISATLASTGTPAFFVHPGEASHGDLGVLSDNDIILAISNSGESSEILALMPVIQRKAIPVIAMTGKPESTMARLAKIHLCIEVPEEACPLGLAPTSSTTATLVMGDAMAIALLQAKGFTRDDFAMSHPGGALGRKLLLKVSNVMHCGDDLPLVKHDICITDALYEISKKGLGMTAIIDEQNKLVGIFTDGDLRRVIDAQVNLRTTPIADVMTRNCVTITENVLAAQALQVMDSRNINGLIVIDKENHPVGALNMLDMVKAGVI", "soluble on expression in E. coli": "not soluble"}
{"sequence": "MKNKPLGLWLMSLLVLVGCKANQDDLTSYVAQVEREARKEVTKLKPILEFEATPYQQHKGREPFVLPKEALVQNQPLAKADCWQPVPRAKNGPLERYPLHQLRLKGVMSSGGSISALVQTPAGSVVKVKAGQYVGINNGKVTRVDDNYLLINETLPDGLGCWNQRNVKLALK", "soluble on expression in E. coli": "not soluble"}
{"sequence": "MEFNLHAVSSEEKERDFDVVIVGAGAAGFSAAVYAARSGFSVAILDKAVAGGLTAEAPLVENYLGFKSIVGSELAKLFADHAANYAKIREGVEVRSIKKTQGGFDIETNDDTYHAKYVIITTGTTHKHLGVKGESEYFGKGTSYCSTCDGYLFKGKRVVTIGGGNSGAIAAISMSEYVKNVTIIEYMPKYMCENAYVQEIKKRNIPYIMNAQVTEIVGDGKKVTGVKYKDRTTGEEKLIETDGVFIYVGLIPQTSFLKDSGVKLDERGYIVVDSRQRTSVPGVYAAGDVTSGNFAQIASAVGDGCKAALSLYSDSISKK", "soluble on expression in E. coli": "soluble"}
{"sequence": "MVDLNKYKRFVETHGMKIPVLSLEYEYQAYLKLGRVEKAETLRKWLNERKG", "soluble on expression in E. coli": "not soluble"}
{"sequence": "MTRTELTQYLADFLRVSAFKDYAPNGLQVEGKAEIRTIVTGVTACQALIDEAIRLKADAILVHHGFFWKSEPEVITGMKQRRIKALLAHDINLFGYHLPLDAHPMLGNNATLGRKLGILDAEAVEDVAQGLVWRGKLDLPMSASEFAAMLAEVLGRDPLHIGESSDEIQYLAWCTGGAQDYIDVAASLGVDAFISGEVSERTYHSAVEQGIHYYAAGHHATERFGIEALGRHLAREFNLVHHFVDITNPVLEHHHHHH", "soluble on expression in E. coli": "soluble"}
{"sequence": "MGSDKIHHHHHHMLNQVYRLVSPRQFEVETVAEEVDADDLIVRPKFLSICHADTRYFFGQRSQAALRAKLPMALIHEAVGEVVYDPRNEYKPGTLVAMVPNTPVKKDSIIQENYLPSSRFRSSGYDGFMQEYVCLRRDRAITVPSDFDPHMAAFIEMVSVGVQALTKLESTMDEDQRVIGIWGDGNLGYITATLVKQIFPDSQLLVFGRHQSKLDYFSFADKTYLVDDIPADVKVSQALECTGGQGSEAAIQQIIQHIQPMGTAILMGVSENPVGIDTRSVLAEGLTLRGVSRSSREDFKRAVDILSSSPVTRERLQNLVGYVQKVSSIQDITNFFDSALTNYWGKEVMEWDV", "soluble on expression in E. coli": "not soluble"}
{"sequence": "MFDPKQFDELANKLFATLPTSLQNFEKDIQQKFKEVLQSTFSRMDLVTREEFDVQCKVLARTREKLEQLQHQLEDFIKRQEVKNNK", "soluble on expression in E. coli": "not soluble"}
{"sequence": "MGSDKIHHHHHHELPDNRTELNENNVGKILLSAYPTTAICEMGEMSSDNTDAYPNRFSSFNRLQEDLYKWADSAEQDQDSPHALWESCYMAISACNEVLKVIEDAGNPASLSAEKGEALVCRAYAHFLLANIFCNAYSSQASSDLGIPYMKTIETTVSPDYQRGTLEEVYQNIEKDLLEGLDLVTDIYAVPKYHFTKKAAQAFAARFYLYYVKSDKSNYTKVIDYATKVLGSNPATSVRDWKSLGALDINGSVQPNAYVDATNGANLLLVSAGSYWGYVHAPYGLGERYAHGPKVGNETCNSVGPWGSDYYMGVWSNSSALPTKIVVMKITQYKEVVDAVAGTINGHMINAAFTTDETLLCRAEAYAMKEMYPQAIADLNIWREAYTRSTTPLTTESINDFYGSMEYYTPTESTVKKKLNPDFTITNETQENVIHCILHARRLTTLHEGLRWQDIKRYGITIYRRLMNDNGTITVTDKLEPNDPRRAIQIPSDVISAGLKPNPRTK", "soluble on expression in E. coli": "not soluble"}
{"sequence": "PGWEIIHENGRPLYYNAEQKTKLHYPP", "soluble on expression in E. coli": "soluble"}
{"sequence": "MGHHHHHHSHMSQQRPDRIKQMLHYLWQHRHLSTQQAMELFGYAEATVRRDFQYIVNQYPGMIRGHGCLDFDDSTDDKEYVFDVKRTLQSVAKREIAALARTMIKDGDCFFLDSGSTCLELAKCLADARVKVICNDIKIANELGCFPHVESYIIGGLIRPGYFSVGESLALEMINAFSVERAFISCDALSLETGITNATMFEVGVKTRIIQRSREVILMADHSKFDAVEPHAVATLSCIKTIISDSGLPETIAQRYQRAGCQLFLPHSIK", "soluble on expression in E. coli": "soluble"}
{"sequence": "MASGQDKTHIDYAYELDITVKPDSRVPVFNREFATFTGAGVPLFSLGGGPIRYALAEVLAKFHARRGYYVVETPIIASTELFKVSGHIEFYRNNMYLFDIEGHEFAVKPMNCPYHILLFLNEVAKHRSKLPLPFKVFEFGRVHRYEPSGSIYGLLRVRGFTQDDAHIIVPGGRVIDVVYDVFEEMKLVLERLFKLGVSSETFKVRLSMSDKSLIGKEFMGSKEEWEGAEEALREAASRINEKYGIDIVELEGEAAFYGPKLDFIMMVEESGVSKEWQMGTIQFDFNLPRRFRLYDVVREEFGIEEVYIIHRALLGSIERFLGVYLEHRRGRMPFTLAPIQFAVIAVKTGGEVDREIEDLASSIAKGLLDKGFRVAVKGSSKTGLSSDVRHIESTAKPAVNVFIGAKEVREKVLDVRVFDLESMKRRRLAIAYGDAADAVENLAAVAEELESPVRSLSGQAPRIPADFSFML", "soluble on expression in E. coli": "soluble"}
{"sequence": "MANSPKKPSDGTGVSASDTPKYQHTVPETKPAFNLSPGKASELSHSLPSPSQIKSTAHVSSTHNDAAGNTDDSVLPKNVSPTTNLRVESNGDTNNMFSSPAGLALPKKDDKKKNKGTSKADSKDGKASNSSGQNAQQQSDPNKMQDVLFSAGIDVREEEALLNSSINASKSQVQTNNVKIPNHLPFLHPEQVSNYMRKVGKEQNFNLTPTKNPEILDMMSSACENYMRDILTNAIVISRHRRKAVKINSGRRSEVSAALRAIALIQKKEEERRVKKRIALGLEKEDYENKIDSEETLHRASNVTAGLRAGSKKQYGWLTSSVNKPTSLGAKSSGKVASDITARGESGLKFREAREEPGIVMRDLLFALENRRNSVQTIISKGYAKIRD", "soluble on expression in E. coli": "not soluble"}
{"sequence": "SRPRLSQLSVTDVTTSSLRLNWEAPPGAFDSFLLRFGVPSPSTLEPHPRPLLQRELMVPGTRHSAVLRDLRSGTLYSLTLYGLRGPHKADSIQGTARTL", "soluble on expression in E. coli": "soluble"}
{"sequence": "AMSTQGLVQLLANAQCHLRTSTNYNGVHTQFNSALNYKNNGTNTIDGSEAWCSSIVDTNQYIVAGCEVPRTFMCVALQGRGDADQWVTSYKIRYSLDNVSWFEYRNGAAVTGVTDRNTVVNHFFDTPIRARSIAIHPLTWNGHISLRCEFYTQPVQSSVTQVGADIYTGDNCALNTGSGKREVVVPVKFQFEFATLPKVALNFDQIDCTDATNQTRIGVQPRNITTKGFDCVFYTWNENKVYSLRADYIATALE", "soluble on expression in E. coli": "soluble"}
{"sequence": "MAQTAFHVEFNKAPEDQATKTHNRWHPDIPMVEWFNPGDEFRVECYDWTGGQISNDDSANDVRDVDLTRVHYLSGPFGVKGAEPGDLLVVDLLDVGALPESAWGFTGIFARENGGGFLCEHFPDARKACWDFHGIYTTSRHVPNVRWPGIIHPGLIGCLPDRALLERANKREAALLATDPNRVPPLLAPSYADTALMGQMSGEAARKAGAEAWRTVPPREHGGNCDIKNLSRGSRVYFPVYVKGGGLSMGDIHWSQGDGEITFCGAIEMAGFLDIRVDLIKDGINKYGIVNPIFKPSPIEPHFAEYLVFEGISVDEHTGEQYYLDAHVAYRRACLNAIEYLKKFGYTSEQAYIILGTAPVEGRISGIVDIPNACCTLAIPTEIFDFDIRPNAAGPSAKVGKAKVAVTSLEHHHHHH", "soluble on expression in E. coli": "not soluble"}
{"sequence": "MLQTLSTHLSSTSTSTTTPLLLLSKPFLSPSAKSQLSHSKPFNFPRTLKPISYYKPPMANILSKLGFGTRSPDPSTMDPTIPQGPDDDLPAPGQQFAQFGAGCFWGVELAFQRVPGVTKTEVGYTQGLLHNPTYEDVCTGTTNHNEVVRVQYDPKECSFDTLIDVLWARHDPTTLNRQGNDVGTQYRSGIYYYTPEQEKAAKESLERQQKLLNRKIVTEILPAKKFYRAEEYHQQYLAKGGRFGFMQSAEKGCNDPIRCYG", "soluble on expression in E. coli": "soluble"}
